Columns and labels:
[1] = target: the molecule itself; experiment: cryo-EM structure; Cas12f D510A with sgRNA (222 nt) and 60-bp target dsDNA (TTTA PAM), ratio 1:1.2:1.3, 37°C, purified by SEC in 25 mM Tris-HCl pH 7.6, 150 mM NaCl, 2 mM DTT, 1 mM MgCl2; 3.1 Å
[2] = target: the molecule itself; experiment: cryo-EM structure; Cas12f with sgRNA, ratio 1:1.2, 37°C for 30 min in 25 mM Tris-HCl pH 7.6, 150 mM NaCl, 2 mM DTT, 1 mM MgCl2; no target DNA; 3.9 Å
[3] = target: T1, Un1Cas12f1 D510A (Cas14a1; catalytically inactive) (UniProt A0A482D308 1-529, D510A); experiment: cryo-EM (3.1 A); SEC; 1 mM Mg2+; Complex assembly in 25 mM Tris-HCl pH 7.6, 150 mM NaCl, 2 mM DTT, 1 mM MgCl2, 37 C 30 min; SEC in same buffer; settings: protein: recombinant; tags: N-terminal 10xHis-MBP removed by TEV; chain copies: 2; sgRNA; target and non-target DNA strands blunt 60 bp; guide:target heteroduplex 19-20 bp
T1 sequence: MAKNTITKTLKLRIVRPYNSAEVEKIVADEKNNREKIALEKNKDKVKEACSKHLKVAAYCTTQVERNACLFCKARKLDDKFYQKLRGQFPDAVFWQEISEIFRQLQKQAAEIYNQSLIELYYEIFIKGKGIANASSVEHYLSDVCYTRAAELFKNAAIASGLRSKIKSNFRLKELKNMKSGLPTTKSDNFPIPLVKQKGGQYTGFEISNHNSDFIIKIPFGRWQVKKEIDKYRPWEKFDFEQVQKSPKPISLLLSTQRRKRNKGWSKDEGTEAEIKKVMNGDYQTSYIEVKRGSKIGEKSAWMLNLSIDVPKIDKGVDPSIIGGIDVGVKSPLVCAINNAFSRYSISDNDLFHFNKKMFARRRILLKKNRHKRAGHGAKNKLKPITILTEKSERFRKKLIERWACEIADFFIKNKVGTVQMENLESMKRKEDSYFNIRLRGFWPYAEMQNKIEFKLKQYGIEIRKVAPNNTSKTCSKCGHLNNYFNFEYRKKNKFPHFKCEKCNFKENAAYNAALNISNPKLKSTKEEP

[4] = target: T2, Un1Cas12f1 (Cas14a1) (UniProt A0A482D308 1-529); experiment: cryo-EM (3.9 A); SEC; 1 mM Mg2+; no target DNA; Complex assembly in 25 mM Tris-HCl pH 7.6, 150 mM NaCl, 2 mM DTT, 1 mM MgCl2, 37 C 30 min; SEC in same buffer; settings: protein: recombinant; tags: N-terminal 10xHis-MBP removed by TEV; chain copies: 2; four stem-loops, two AR:R duplexes; 1 copy per Cas12f dimer
T2 sequence: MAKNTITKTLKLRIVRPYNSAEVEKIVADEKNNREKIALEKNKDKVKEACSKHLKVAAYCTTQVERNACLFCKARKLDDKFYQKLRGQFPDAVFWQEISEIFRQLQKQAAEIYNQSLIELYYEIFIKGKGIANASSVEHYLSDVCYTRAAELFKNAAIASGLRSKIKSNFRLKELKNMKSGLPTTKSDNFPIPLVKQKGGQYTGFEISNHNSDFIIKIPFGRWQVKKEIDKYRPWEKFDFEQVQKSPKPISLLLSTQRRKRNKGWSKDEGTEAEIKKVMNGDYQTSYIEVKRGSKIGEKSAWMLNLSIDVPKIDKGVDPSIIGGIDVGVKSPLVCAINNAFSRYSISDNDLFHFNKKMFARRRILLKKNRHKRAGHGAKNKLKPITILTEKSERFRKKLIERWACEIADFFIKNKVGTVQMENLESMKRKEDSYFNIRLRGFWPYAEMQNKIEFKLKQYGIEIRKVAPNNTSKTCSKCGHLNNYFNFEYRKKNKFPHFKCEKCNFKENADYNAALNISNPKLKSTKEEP

B1: Un1Cas12f1 D510A (inactive Cas12f mutant used for the Cas12f-sgRNA-target DNA ternary complex) (enzyme, UniProt A0A482D308 1-529, looked up)
chain: MAKNTITKTLKLRIVRPYNSAEVEKIVADEKNNREKIALEKNKDKVKEACSKHLKVAAYCTTQVERNACLFCKARKLDDKFYQKLRGQFPDAVFWQEISEIFRQLQKQAAEIYNQSLIELYYEIFIKGKGIANASSVEHYLSDVCYTRAAELFKNAAIASGLRSKIKSNFRLKELKNMKSGLPTTKSDNFPIPLVKQKGGQYTGFEISNHNSDFIIKIPFGRWQVKKEIDKYRPWEKFDFEQVQKSPKPISLLLSTQRRKRNKGWSKDEGTEAEIKKVMNGDYQTSYIEVKRGSKIGEKSAWMLNLSIDVPKIDKGVDPSIIGGIDVGVKSPLVCAINNAFSRYSISDNDLFHFNKKMFARRRILLKKNRHKRAGHGAKNKLKPITILTEKSERFRKKLIERWACEIADFFIKNKVGTVQMENLESMKRKEDSYFNIRLRGFWPYAEMQNKIEFKLKQYGIEIRKVAPNNTSKTCSKCGHLNNYFNFEYRKKNKFPHFKCEKCNFKENAAYNAALNISNPKLKSTKEEP
notes: Cas12f (UnCas12f1 / Un1Cas12f1, also known as Cas14), full length, 529 amino acids, 61.5 kDa; plasmid Addgene #112500; catalytic D510 changed to alanine; three N-terminal and four C-terminal residues are not modelled; also called Cas12f D510A; Cas12f.2; source: E. coli BL21(DE3), purified (Ni-NTA, TEV cleavage, HiTrap SP, Superdex 200); not shown: 10xHis-MBP, N-terminal, cleaved
For B1, the “stoichiometry N” value [1] was 2.

B2: Cas12f (UnCas12f1), used for the Cas12f-sgRNA binary complex (enzyme, UniProt A0A482D308 1-529, looked up)
chain: MAKNTITKTLKLRIVRPYNSAEVEKIVADEKNNREKIALEKNKDKVKEACSKHLKVAAYCTTQVERNACLFCKARKLDDKFYQKLRGQFPDAVFWQEISEIFRQLQKQAAEIYNQSLIELYYEIFIKGKGIANASSVEHYLSDVCYTRAAELFKNAAIASGLRSKIKSNFRLKELKNMKSGLPTTKSDNFPIPLVKQKGGQYTGFEISNHNSDFIIKIPFGRWQVKKEIDKYRPWEKFDFEQVQKSPKPISLLLSTQRRKRNKGWSKDEGTEAEIKKVMNGDYQTSYIEVKRGSKIGEKSAWMLNLSIDVPKIDKGVDPSIIGGIDVGVKSPLVCAINNAFSRYSISDNDLFHFNKKMFARRRILLKKNRHKRAGHGAKNKLKPITILTEKSERFRKKLIERWACEIADFFIKNKVGTVQMENLESMKRKEDSYFNIRLRGFWPYAEMQNKIEFKLKQYGIEIRKVAPNNTSKTCSKCGHLNNYFNFEYRKKNKFPHFKCEKCNFKENADYNAALNISNPKLKSTKEEP
notes: Cas12f (UnCas12f1 / Un1Cas12f1, also known as Cas14), full length, 529 amino acids; plasmid Addgene #112500; The methods say only 'Cas12f proteins' for the binary complex, set against 'Cas12f D510A mutant proteins' for the ternary complex; also called Un1Cas12f1; wild-type Cas12f; source: E. coli BL21(DE3), purified (Ni-NTA, TEV cleavage, HiTrap SP, Superdex 200); not shown: 10xHis-MBP, …
B2: binds [2].

B3: sgRNA + 60-bp target dsDNA (TTTA PAM) (mixed)
RNA: CUUCACUGAUAAAGUGGAGAACCGCUUCACCAAAAGCUGUCCCUUAGGGGAUUAGAACUUGAGUGAAGGUGGGCUGCUUGCAUCAGCCUAAUGUCGAGAAGUGCUUUCUUCGGAAAGUAACCCUCGAAACAAAUUCAUUUUUCCUCUCCAAUUCUGCACAAGAAAGUUGCAGAACCCGAAUAGACGAAUGAAGGAAUGCAACAGUUGACCCAACGUCGCCGG
DNA 1: GCTGATGCATCTAGATTGTGCACGCCGGCGACGTTGGGTCAACTTAAATACGTAAGGTGC
DNA 2: GCACCTTACGTATTTAAGTTGACCCAACGTCGCCGGCGTGCACAATCTAGATGCATCAGC
B3: binds [3].

B4: sgRNA (full length, 222 nt) (structured_RNA)
RNA: CUUCACUGAUAAAGUGGAGAACCGCUUCACCAAAAGCUGUCCCUUAGGGGAUUAGAACUUGAGUGAAGGUGGGCUGCUUGCAUCAGCCUAAUGUCGAGAAGUGCUUUCUUCGGAAAGUAACCCUCGAAACAAAUUCAUUUUUCCUCUCCAAUUCUGCACAAGAAAGUUGCAGAACCCGAAUAGACGAAUGAAGGAAUGCAACAGUUGACCCAACGUCGCCGG
B4: binds [4].
